Laboratory results: paper PMC9355967

Experiments:
[1] = target: purified AFDN FHA domain Δex9 (mouse); experiment: ITC; MicroCal ITC200, 25 °C, 20 mM Tris-HCl pH 7.5, 150 mM NaCl, 1 mM DTT
[2] = target: FLAG-tagged full-length AFDN (mouse) (UniProt Q9QZQ1); experiment: co-IP; HEK 293T cells co-transfected; anti-FLAG IP on Protein G sepharose, Western blot with anti-GFP or antibodies to the endogenous protein; TX100 buffer (20 mM Tris pH 7.5, 150 mM NaCl, 1% NP-40, 1% Triton X-100, 5 mM MgCl2 for GTPases); also after FastAP phosphatase treatment of lysates; with or without co-expressed GTPases (densitometry in Fig. 4g)
Chain of FLAG-tagged full-length AFDN (mouse) (Q9QZQ1 whole entry): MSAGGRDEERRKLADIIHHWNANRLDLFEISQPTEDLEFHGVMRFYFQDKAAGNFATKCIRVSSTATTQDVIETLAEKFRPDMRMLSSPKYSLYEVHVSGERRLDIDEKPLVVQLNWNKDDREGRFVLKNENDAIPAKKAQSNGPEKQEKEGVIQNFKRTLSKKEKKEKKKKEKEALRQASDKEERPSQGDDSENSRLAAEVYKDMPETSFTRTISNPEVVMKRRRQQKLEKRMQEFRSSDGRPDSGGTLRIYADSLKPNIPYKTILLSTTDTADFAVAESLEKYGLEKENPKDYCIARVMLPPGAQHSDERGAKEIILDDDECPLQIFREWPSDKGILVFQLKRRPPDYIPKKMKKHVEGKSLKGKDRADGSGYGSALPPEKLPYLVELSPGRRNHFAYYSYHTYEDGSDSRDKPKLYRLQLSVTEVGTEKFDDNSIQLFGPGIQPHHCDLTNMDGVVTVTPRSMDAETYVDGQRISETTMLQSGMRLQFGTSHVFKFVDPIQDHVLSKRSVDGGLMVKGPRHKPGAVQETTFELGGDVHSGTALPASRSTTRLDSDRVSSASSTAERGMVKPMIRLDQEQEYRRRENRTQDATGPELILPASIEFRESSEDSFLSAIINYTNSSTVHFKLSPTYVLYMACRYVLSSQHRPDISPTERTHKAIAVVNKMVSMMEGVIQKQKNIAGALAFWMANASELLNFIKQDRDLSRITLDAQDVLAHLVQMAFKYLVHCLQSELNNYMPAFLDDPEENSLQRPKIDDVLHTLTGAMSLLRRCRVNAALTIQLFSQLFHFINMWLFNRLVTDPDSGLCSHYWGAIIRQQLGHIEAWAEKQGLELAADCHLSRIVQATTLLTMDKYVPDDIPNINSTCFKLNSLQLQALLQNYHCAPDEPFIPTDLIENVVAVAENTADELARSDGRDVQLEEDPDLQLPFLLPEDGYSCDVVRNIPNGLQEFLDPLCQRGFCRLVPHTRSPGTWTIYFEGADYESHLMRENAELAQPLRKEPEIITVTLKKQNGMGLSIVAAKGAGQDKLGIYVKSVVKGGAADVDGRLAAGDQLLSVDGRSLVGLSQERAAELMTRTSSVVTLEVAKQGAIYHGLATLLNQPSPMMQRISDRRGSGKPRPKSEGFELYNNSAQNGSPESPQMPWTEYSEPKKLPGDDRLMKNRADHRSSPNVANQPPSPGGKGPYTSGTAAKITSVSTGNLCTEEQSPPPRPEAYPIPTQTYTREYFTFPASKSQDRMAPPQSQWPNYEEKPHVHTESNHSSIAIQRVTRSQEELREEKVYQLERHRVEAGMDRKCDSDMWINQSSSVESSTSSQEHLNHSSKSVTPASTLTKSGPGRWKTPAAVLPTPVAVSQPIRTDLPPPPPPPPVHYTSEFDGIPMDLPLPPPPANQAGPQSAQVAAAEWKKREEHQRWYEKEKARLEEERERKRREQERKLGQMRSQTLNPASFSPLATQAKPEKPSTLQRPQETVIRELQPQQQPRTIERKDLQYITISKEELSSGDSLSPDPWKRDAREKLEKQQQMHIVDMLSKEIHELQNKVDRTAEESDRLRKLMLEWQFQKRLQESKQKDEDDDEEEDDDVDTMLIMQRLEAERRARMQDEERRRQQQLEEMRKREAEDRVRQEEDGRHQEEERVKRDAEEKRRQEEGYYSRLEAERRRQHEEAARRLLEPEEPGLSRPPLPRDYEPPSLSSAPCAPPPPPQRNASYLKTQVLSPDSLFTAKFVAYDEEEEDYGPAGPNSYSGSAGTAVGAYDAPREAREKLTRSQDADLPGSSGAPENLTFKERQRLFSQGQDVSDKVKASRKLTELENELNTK

Chain of purified SCRIB PDZ1 domain (718-820) (Q14160 718-820): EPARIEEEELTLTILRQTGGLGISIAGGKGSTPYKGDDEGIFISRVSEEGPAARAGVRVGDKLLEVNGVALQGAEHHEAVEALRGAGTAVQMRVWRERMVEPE

| Kd [1] [µM] | fold increase of SCRIB co-precipitated with AFDN, KRAS-G12V co-expressed, against wild-type KRAS [2] [fold] | fold increase of SCRIB co-precipitated with AFDN, RAP1B-G12V co-expressed, against wild-type KRAS [2] [fold] | fold increase of SCRIB co-precipitated with AFDN, RAP2C-G12V co-expressed, against wild-type KRAS [2] [fold] | Substance |
| --- | --- | --- | --- | --- |
| 22.9 | – | – | – | purified SCRIB PDZ1 domain (718-820) (from UniProt Q14160 718-820) (domain or fragment) |
| – | 8 | 1.7 | 2.6 | EGFP-tagged full-length SCRIB (from UniProt Q14160 1-1655) (natural protein) |
